# Assays:
# [1] = molecular target: T1, EcTrmL (Escherichia coli, UniProt P0AGJ7, K81E); assay: isothermal titration calorimetry, one-site model; assay type: binding
# T1 construct: gene trmL
# [2] = molecular target: T2, EcTrmL (Escherichia coli, UniProt P0AGJ7, R129E); assay: isothermal titration calorimetry, one-site model; assay type: binding
# T2 construct: gene trmL
# [3] = molecular target: T3, EcTrmL (Escherichia coli, UniProt P0AGJ7, R59E); assay: isothermal titration calorimetry, one-site model; assay type: binding
# T3 construct: gene trmL
# [4] = molecular target: T4, EcTrmL (Escherichia coli, UniProt P0AGJ7, R20E); assay: isothermal titration calorimetry, one-site model; assay type: binding
# T4 construct: gene trmL
# [5] = molecular target: T5, EcTrmL (Escherichia coli, UniProt P0AGJ7, R46E); assay: isothermal titration calorimetry, one-site model; assay type: binding
# T5 construct: gene trmL
# [6] = molecular target: T6, EcTrmL (Escherichia coli, UniProt P0AGJ7, K42E); assay: isothermal titration calorimetry, one-site model; assay type: binding
# T6 construct: gene trmL
# [7] = molecular target: T7, EcTrmL (Escherichia coli, UniProt P0AGJ7, R45E); assay: isothermal titration calorimetry, one-site model; assay type: binding
# T7 construct: gene trmL
# [8] = molecular target: T8, EcTrmL (Escherichia coli, UniProt P0AGJ7, R104E); assay: isothermal titration calorimetry, one-site model; assay type: binding
# T8 construct: gene trmL
# [9] = molecular target: T9, EcTrmL (Escherichia coli, UniProt P0AGJ7, R43E); assay: isothermal titration calorimetry, one-site model; assay type: binding
# T9 construct: gene trmL
# [10] = molecular target: the molecule itself; assay: SEC; analytical gel filtration, Superdex 75 (10/30), 20 mM Tris-HCl pH 7.5, 100 mM NaCl, 5 mM MgCl2, 5 mM beta-Me, 300 ul injected, 0.5 ml/min, against standard proteins
# [11] = molecular target: the molecule itself; assay: not stated; oligomeric state of the purified Glu single mutants in solution; the method is not named for this statement
Molecule,stoichiometry N [11],other results
"Nc1ncnc2c1ncn2[C@@H]1O[C@H](CSCC[C@H](N)C(=O)O)[C@@H](O)[C@H]1O [SAH, S-adenosyl-homocysteine]",,Kd [1]: 30 µM; Kd [2]: 19 µM; Kd [3]: 27 µM; Kd [4]: 45 µM; Kd [5]: 29 µM; Kd [6]: 20 µM; Kd [7]: 29 µM; Kd [8]: 33 µM; Kd [9]: 39 µM
"tRNA (Um34/Cm34) methyltransferase TrmL from E. coli, wild type (enzyme, UniProt P0AGJ7 1-157, looked up, TrmL, tRNA (Um34/Cm34) methyltransferase, E. coli; gene amplified from the genome of E. coli MT102; 157 amino acids as printed; also called EcTrmL; Yibk; source: E. coli BL21 (DE3), pET30b, purified (Ni-NTA, Superdex 75 gel filtration)) MLNIVLYEPEIPPNTGNIIRLCANTGFRLHIIEPMGFAWDDKRLRRAGLDYHEFTAVTRHHDYRAFLEAENPQRLFALTTKGTPAHSAVSYQDGDYLMFGPETRGLPASILDALPAEQKIRIPMVPDSRSMNLSNAVSVVVYEAWRQLGYPGAVLRD",,stoichiometry N [10]: 2
"EcTrmL-R20E (enzyme, E. coli, UniProt P0AGJ7 1-157, looked up, TrmL, E. coli, 157 amino acids, with R20E; source: E. coli BL21 (DE3), pET30b, purified (Ni-NTA, Superdex 75 gel filtration)) MLNIVLYEPEIPPNTGNIIELCANTGFRLHIIEPMGFAWDDKRLRRAGLDYHEFTAVTRHHDYRAFLEAENPQRLFALTTKGTPAHSAVSYQDGDYLMFGPETRGLPASILDALPAEQKIRIPMVPDSRSMNLSNAVSVVVYEAWRQLGYPGAVLRD",2,
"EcTrmL-R46E (enzyme, E. coli, UniProt P0AGJ7 1-157, looked up, TrmL, E. coli, 157 amino acids, with R46E; source: E. coli BL21 (DE3), pET30b, purified (Ni-NTA, Superdex 75 gel filtration)) MLNIVLYEPEIPPNTGNIIRLCANTGFRLHIIEPMGFAWDDKRLREAGLDYHEFTAVTRHHDYRAFLEAENPQRLFALTTKGTPAHSAVSYQDGDYLMFGPETRGLPASILDALPAEQKIRIPMVPDSRSMNLSNAVSVVVYEAWRQLGYPGAVLRD",2,
"EcTrmL-K42E (enzyme, E. coli, UniProt P0AGJ7 1-157, looked up, TrmL, E. coli, 157 amino acids, with K42E; source: E. coli BL21 (DE3), pET30b, purified (Ni-NTA, Superdex 75 gel filtration)) MLNIVLYEPEIPPNTGNIIRLCANTGFRLHIIEPMGFAWDDERLRRAGLDYHEFTAVTRHHDYRAFLEAENPQRLFALTTKGTPAHSAVSYQDGDYLMFGPETRGLPASILDALPAEQKIRIPMVPDSRSMNLSNAVSVVVYEAWRQLGYPGAVLRD",2,
"EcTrmL-R64E (enzyme, E. coli, UniProt P0AGJ7 1-157, looked up, TrmL, E. coli, 157 amino acids, with R64E; source: E. coli BL21 (DE3), pET30b, purified (Ni-NTA, Superdex 75 gel filtration)) MLNIVLYEPEIPPNTGNIIRLCANTGFRLHIIEPMGFAWDDKRLRRAGLDYHEFTAVTRHHDYEAFLEAENPQRLFALTTKGTPAHSAVSYQDGDYLMFGPETRGLPASILDALPAEQKIRIPMVPDSRSMNLSNAVSVVVYEAWRQLGYPGAVLRD",2,
"EcTrmL-R74E (enzyme, E. coli, UniProt P0AGJ7 1-157, looked up, TrmL, E. coli, 157 amino acids, with R74E; source: E. coli BL21 (DE3), pET30b, purified (Ni-NTA, Superdex 75 gel filtration)) MLNIVLYEPEIPPNTGNIIRLCANTGFRLHIIEPMGFAWDDKRLRRAGLDYHEFTAVTRHHDYRAFLEAENPQELFALTTKGTPAHSAVSYQDGDYLMFGPETRGLPASILDALPAEQKIRIPMVPDSRSMNLSNAVSVVVYEAWRQLGYPGAVLRD",2,
"EcTrmL-R104E (enzyme, E. coli, UniProt P0AGJ7 1-157, looked up, TrmL, E. coli, 157 amino acids, with R104E; source: E. coli BL21 (DE3), pET30b, purified (Ni-NTA, Superdex 75 gel filtration)) MLNIVLYEPEIPPNTGNIIRLCANTGFRLHIIEPMGFAWDDKRLRRAGLDYHEFTAVTRHHDYRAFLEAENPQRLFALTTKGTPAHSAVSYQDGDYLMFGPETEGLPASILDALPAEQKIRIPMVPDSRSMNLSNAVSVVVYEAWRQLGYPGAVLRD",2,
"EcTrmL-R45E (enzyme, E. coli, UniProt P0AGJ7 1-157, looked up, TrmL, E. coli, 157 amino acids, with R45E; source: E. coli BL21 (DE3), pET30b, purified (Ni-NTA, Superdex 75 gel filtration)) MLNIVLYEPEIPPNTGNIIRLCANTGFRLHIIEPMGFAWDDKRLERAGLDYHEFTAVTRHHDYRAFLEAENPQRLFALTTKGTPAHSAVSYQDGDYLMFGPETRGLPASILDALPAEQKIRIPMVPDSRSMNLSNAVSVVVYEAWRQLGYPGAVLRD",2,
"EcTrmL-K81E (enzyme, E. coli, UniProt P0AGJ7 1-157, looked up, TrmL, E. coli, 157 amino acids, with K81E; source: E. coli BL21 (DE3), pET30b, purified (Ni-NTA, Superdex 75 gel filtration)) MLNIVLYEPEIPPNTGNIIRLCANTGFRLHIIEPMGFAWDDKRLRRAGLDYHEFTAVTRHHDYRAFLEAENPQRLFALTTEGTPAHSAVSYQDGDYLMFGPETRGLPASILDALPAEQKIRIPMVPDSRSMNLSNAVSVVVYEAWRQLGYPGAVLRD",2,
"EcTrmL-R59E (enzyme, E. coli, UniProt P0AGJ7 1-157, looked up, TrmL, E. coli, 157 amino acids, with R59E; source: E. coli BL21 (DE3), pET30b, purified (Ni-NTA, Superdex 75 gel filtration)) MLNIVLYEPEIPPNTGNIIRLCANTGFRLHIIEPMGFAWDDKRLRRAGLDYHEFTAVTEHHDYRAFLEAENPQRLFALTTKGTPAHSAVSYQDGDYLMFGPETRGLPASILDALPAEQKIRIPMVPDSRSMNLSNAVSVVVYEAWRQLGYPGAVLRD",2,
"EcTrmL-R43E (enzyme, E. coli, UniProt P0AGJ7 1-157, looked up, TrmL, E. coli, 157 amino acids, with R43E; source: E. coli BL21 (DE3), pET30b, purified (Ni-NTA, Superdex 75 gel filtration)) MLNIVLYEPEIPPNTGNIIRLCANTGFRLHIIEPMGFAWDDKELRRAGLDYHEFTAVTRHHDYRAFLEAENPQRLFALTTKGTPAHSAVSYQDGDYLMFGPETRGLPASILDALPAEQKIRIPMVPDSRSMNLSNAVSVVVYEAWRQLGYPGAVLRD",2,
"EcTrmL-R28E (enzyme, E. coli, UniProt P0AGJ7 1-157, looked up, TrmL, E. coli, 157 amino acids, with R28E; source: E. coli BL21 (DE3), pET30b, purified (Ni-NTA, Superdex 75 gel filtration)) MLNIVLYEPEIPPNTGNIIRLCANTGFELHIIEPMGFAWDDKRLRRAGLDYHEFTAVTRHHDYRAFLEAENPQRLFALTTKGTPAHSAVSYQDGDYLMFGPETRGLPASILDALPAEQKIRIPMVPDSRSMNLSNAVSVVVYEAWRQLGYPGAVLRD",2,
"EcTrmL-R129E (enzyme, E. coli, UniProt P0AGJ7 1-157, looked up, TrmL, E. coli, 157 amino acids, with R129E; source: E. coli BL21 (DE3), pET30b, purified (Ni-NTA, Superdex 75 gel filtration)) MLNIVLYEPEIPPNTGNIIRLCANTGFRLHIIEPMGFAWDDKRLRRAGLDYHEFTAVTRHHDYRAFLEAENPQRLFALTTKGTPAHSAVSYQDGDYLMFGPETRGLPASILDALPAEQKIRIPMVPDSESMNLSNAVSVVVYEAWRQLGYPGAVLRD",2,

# — publication PMC3763551, “The tRNA recognition mechanism of the minimalist SPOUT methyltransferase, TrmL” (Nucleic Acids Research, 2013)
